The text below walks through data of patent publication US20130136736A1 (Ablynx, published 2013).

The test addresses T1, human von Willebrand Factor (vWF) (human, UniProt P04275 764-2813).
T1 construct: Multimeric plasma protein; The species of the vWF on the BIACORE chip and ELISA plates is not restated there; also called vWF (Red Cross); human vWF
The test can be described thus: ELISA on coated vWF: supernatant of a 200 µg/ml nanobody solution heated for 1 h at RT to 90 °C, dilution series, OD 405 nm. (In general: ELISA stands for enzyme-linked immunosorbent assay.)

B1: 12A2H4 (VHH)
VHH: EVQLVESGGGLVQPGGSLRLSCAASGRTFSYNPMGWFRQAPGKGRELVAAISRTGGSTYYPDSVEGRFTISRDNAKRSVYLQMNSLRAEDTAVYYCAAAGVRAEDGRVRTLPSEYTFWGQGTQVTVSS
notes: Humanised 12A2, monovalent
On to B1, for which the binding result was “binds”.
